Results reported in patent US20120237507A1.

Molecular target: c-Met on A549 cells (UniProt P08581)
Experiment: half-maximal binding, flow cytometry on A549 cells

Chain of UniProt P08581 (P08581 25-1390 limits assumed): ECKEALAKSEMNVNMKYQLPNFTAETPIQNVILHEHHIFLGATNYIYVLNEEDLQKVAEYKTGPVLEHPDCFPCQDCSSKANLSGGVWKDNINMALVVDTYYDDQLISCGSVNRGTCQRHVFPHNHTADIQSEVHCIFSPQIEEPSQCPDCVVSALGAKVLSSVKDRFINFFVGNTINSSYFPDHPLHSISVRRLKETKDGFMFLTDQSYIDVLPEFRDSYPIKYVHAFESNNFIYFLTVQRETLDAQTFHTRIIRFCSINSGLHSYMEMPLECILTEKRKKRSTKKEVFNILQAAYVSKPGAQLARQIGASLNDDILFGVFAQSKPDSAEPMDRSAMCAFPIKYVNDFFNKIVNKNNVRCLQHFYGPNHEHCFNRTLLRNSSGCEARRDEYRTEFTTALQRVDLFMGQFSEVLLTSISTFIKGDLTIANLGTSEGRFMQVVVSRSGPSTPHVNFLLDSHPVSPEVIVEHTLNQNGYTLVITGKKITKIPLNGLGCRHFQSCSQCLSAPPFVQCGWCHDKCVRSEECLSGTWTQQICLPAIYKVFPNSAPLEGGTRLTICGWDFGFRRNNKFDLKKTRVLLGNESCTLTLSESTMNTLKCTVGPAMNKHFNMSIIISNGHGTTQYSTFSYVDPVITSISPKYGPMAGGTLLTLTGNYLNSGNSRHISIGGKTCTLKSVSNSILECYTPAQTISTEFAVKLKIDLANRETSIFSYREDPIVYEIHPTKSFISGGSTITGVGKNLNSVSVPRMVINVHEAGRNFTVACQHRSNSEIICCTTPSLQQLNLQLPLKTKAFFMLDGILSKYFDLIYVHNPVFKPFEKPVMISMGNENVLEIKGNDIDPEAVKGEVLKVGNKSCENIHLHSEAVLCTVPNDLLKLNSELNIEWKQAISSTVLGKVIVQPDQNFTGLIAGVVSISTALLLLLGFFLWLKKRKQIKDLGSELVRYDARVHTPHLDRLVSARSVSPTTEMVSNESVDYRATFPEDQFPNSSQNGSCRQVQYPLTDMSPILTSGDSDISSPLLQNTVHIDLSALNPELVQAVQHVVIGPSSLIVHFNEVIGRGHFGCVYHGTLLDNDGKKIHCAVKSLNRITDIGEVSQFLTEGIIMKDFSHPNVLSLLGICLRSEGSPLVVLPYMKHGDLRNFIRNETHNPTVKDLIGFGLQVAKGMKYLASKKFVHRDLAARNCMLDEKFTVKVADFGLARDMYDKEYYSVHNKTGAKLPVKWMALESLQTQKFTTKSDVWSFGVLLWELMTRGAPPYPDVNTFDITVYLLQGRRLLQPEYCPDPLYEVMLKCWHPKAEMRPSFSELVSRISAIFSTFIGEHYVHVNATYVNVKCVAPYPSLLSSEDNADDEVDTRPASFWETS

- EC50: 1.45 nM
Substance: MetMAb/OA-5D5 (Genentech) (antibody)
